Holding throughout (test): Biacore 3000, 25 °C, alanine scan: N-biotinylated peptide on SA chip, G1 Fab titrated; fold loss versus wild-type 25-37 fragment
(In SPR one partner is held on a chip, and binding of the other changes the refractive index at the surface.)

In one experiment the target is T1, F37A.
T1 sequence (peptide, N-terminal biotin): NNFVPTNVGSKAA

For the next experiment, the target named is T2, G33A.
T2 sequence (peptide, N-terminal biotin): NNFVPTNVASKAF

For another experiment, the target named is T3, S34A.
T3 sequence (peptide, N-terminal biotin): NNFVPTNVGAKAF

B1: Fab fragments of antibody G1 (Fab, V domains shown)
VH: EVQLVESGGGLVQPGGSLRLSCAASGFTFSNYWISWVRQAPGKGLEWVAEIRSESDASATHYAEAVKGRFTISRDNAKNSLYLQMNSLRAEDTAVYYCLAYFDYGLAIQNYWGQGTLVTVSS
VL: EIVLTQSPATLSLSPGERATLSCKASKRVTTYVSWYQQKPGQAPRLLIYGASNRYLGIPARFSGSGSGTDFTLTISSLEPEDFAVYYCSQSYNYPYTFGQGTKLEIK
As to B1, the results for the Fold loss in affinity with F37A, with G33A and with S34A were 339 fold, 504 fold and 10.9 fold, respectively.

Values taken from US20220017608A1.
